# Reference: article PMC2115427
# Target: urokinase plasminogen activator receptor (uPAR) of U937 cells (human (endogenous in U937)) (UniProt Q03405)
# Sequence of UniProt Q03405 (Q03405 23-305): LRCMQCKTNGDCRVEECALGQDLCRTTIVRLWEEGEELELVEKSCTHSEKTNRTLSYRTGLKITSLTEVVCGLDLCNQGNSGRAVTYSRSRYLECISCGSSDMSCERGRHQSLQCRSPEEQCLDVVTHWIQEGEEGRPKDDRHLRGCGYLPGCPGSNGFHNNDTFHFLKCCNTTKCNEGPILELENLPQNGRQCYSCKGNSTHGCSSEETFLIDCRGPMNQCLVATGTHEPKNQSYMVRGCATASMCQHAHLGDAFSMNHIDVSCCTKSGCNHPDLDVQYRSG
substance,measurement,value
human urinary urokinase of high Mr (uPA) (enzyme),half-life of dissociation,3 h
